From patent publication US6100053A, “Microbial transglutaminases, their production and use” (priority 1994, dated 2000)

Biological target: α-casein

Units/ml (putrescine assay)	Substance
0.15 Units/ml	transglutaminase preparation (culture broth) of Agaricus sp. (pool or library)
0.16 Units/ml	transglutaminase preparation (culture broth) of Alternaria alternata (pool or library)
0.14 Units/ml	transglutaminase preparation (culture broth) of Amanita virosa (pool or library)
0.44 Units/ml	transglutaminase preparation (culture broth) of Amylostereum chailletii (pool or library)
0.8 Units/ml	transglutaminase preparation (culture broth) of Antrodia serialis (pool or library)
0.62 Units/ml	transglutaminase preparation (culture broth) of Armillaria sp. (pool or library)
0.15 Units/ml	transglutaminase preparation (culture broth) of Ascotricha erinacea (pool or library)
0.23 Units/ml	transglutaminase preparation (culture broth) of Aspergillus foetidus (pool or library)
0.19 Units/ml	transglutaminase preparation (culture broth) of Aspergillus giganteus (pool or library)
0.12 Units/ml	transglutaminase preparation (culture broth) of Aspergillus heteromorphus (pool or library)
0.12 Units/ml	transglutaminase preparation (culture broth) of Aspergillus puniceus (pool or library)
0.16 Units/ml	transglutaminase preparation (culture broth) of Aspergillus tamarii (pool or library)
0.18 Units/ml	transglutaminase preparation (culture broth) of Auricularia polytricha (pool or library)
0.25 Units/ml	transglutaminase preparation (culture broth) of Beauveria calendonica (pool or library)
0.24 Units/ml	transglutaminase preparation (culture broth) of Beauveria cylindrospora (pool or library)
0.32 Units/ml	transglutaminase preparation (culture broth) of Botryosphaeria rhodina (pool or library)
0.24 Units/ml	transglutaminase preparation (culture broth) of Byssochlamys fulva (pool or library)
0.11 Units/ml	transglutaminase preparation (culture broth) of Carponia solliomaris (pool or library)
1.58 Units/ml	transglutaminase preparation (culture broth) of Cercospora beticola (pool or library)
13 Units/ml	transglutaminase preparation (culture broth) of Cercospora carisis (pool or library)

Units/ml (putrescine assay)	Substance
1.3 Units/ml	transglutaminase preparation (culture broth) of Cercospora fusimaculans (pool or library)
0.26 Units/ml	transglutaminase preparation (culture broth) of Cercospora hayi (pool or library)
0.24 Units/ml	transglutaminase preparation (culture broth) of Cercospora sesami (pool or library)
0.53 Units/ml	transglutaminase preparation (culture broth) of Cercospora traversiana (pool or library)
0.16 Units/ml	transglutaminase preparation (culture broth) of Chaetomium funicolum (pool or library)
0.2 Units/ml	transglutaminase preparation (culture broth) of Chamaemyces fracidus (pool or library)
0.22 Units/ml	transglutaminase preparation (culture broth) of Cladosporium cladosporiodes (pool or library)
0.19 Units/ml	transglutaminase preparation (culture broth) of Cladosporium oxysporum (pool or library)
0.14 Units/ml	transglutaminase preparation (culture broth) of Cladosporium resinae (pool or library)
1.07 Units/ml	transglutaminase preparation (culture broth) of Cladosporium sphaeospermum (pool or library)
0.09 Units/ml	transglutaminase preparation (culture broth) of Cochliobolus sativus (pool or library)
0.13 Units/ml	transglutaminase preparation (culture broth) of Coniothyrium cerealis (pool or library)
0.14 Units/ml	transglutaminase preparation (culture broth) of Coprinus cinereus (pool or library)
0.44 Units/ml	transglutaminase preparation (culture broth) of Coprinus sp. (pool or library)
0.23 Units/ml	transglutaminase preparation (culture broth) of Cunninghamella elegans (pool or library)
0.28 Units/ml	transglutaminase preparation (culture broth) of Curvularia borreiae (pool or library)
0.96 Units/ml	transglutaminase preparation (culture broth) of Dendryphiella salina (pool or library)
0.42 Units/ml	transglutaminase preparation (culture broth) of Dimorphosporum disporatrichum (pool or library)
0.2 Units/ml	transglutaminase preparation (culture broth) of Gymnopilus junonius (pool or library)

Substance	Units/ml (putrescine assay)
transglutaminase preparation (culture broth) of Fusarium armeniacum (pool or library)	0.19 Units/ml
transglutaminase preparation (culture broth) of Fusarium decemcellulare (pool or library)	0.1 Units/ml
transglutaminase preparation (culture broth) of Fusarium dimerum (pool or library)	0.25 Units/ml
transglutaminase preparation (culture broth) of Fusarium flocciferum (pool or library)	0.15 Units/ml
transglutaminase preparation (culture broth) of Fusarium merismoides (pool or library)	0.16 Units/ml
transglutaminase preparation (culture broth) of Fusarium redolens (pool or library)	0.16 Units/ml
